Blank lines part the entries; values can stand above or below the substance they belong to.
Columns and labels:
Assay in all cases: crystal structure
[1] = target: HpiC1 Y101F (Fischerella sp. ATCC 43239)
[2] = target: HpiC1 F138S (Fischerella sp. ATCC 43239)
[3] = target: HpiC1 W73M/K132M selenomethionine derivative (Fischerella sp. ATCC 43239)
[4] = target: HpiC1 Y101F/F138S (Fischerella sp. ATCC 43239)
[5] = target: HpiC1 Y101S (Fischerella sp. ATCC 43239)
[6] = target: HpiC1 native (Fischerella sp. ATCC 43239)

Substance: HpiC1 Y101F (enzyme)
stoichiometry N [1]: 2

Substance: HpiC1 F138S (enzyme)
stoichiometry N [2]: 2

Substance: HpiC1 Y101S (enzyme)
stoichiometry N [5]: 2

Substance: HpiC1 native (enzyme)
stoichiometry N [6]: 2

Results, then the substance that gave them:

stoichiometry N [3]: 2
Substance: HpiC1 W73M/K132M selenomethionine derivative (enzyme)

stoichiometry N [4]: 2
Substance: HpiC1 Y101F/F138S (enzyme)

From publication doi:10.1101/173674
